Measured values from paper PMC3988464 (Journal of immunology (Baltimore, Md. : 1950), 2014).

What was measured:
[1] = molecular target: Isolated Link module of human TSG-6 (Link_TSG6) (human, UniProt P98066 36-129); test: SPR
[2] = molecular target: Full-length, wild type recombinant human TSG-6 (human, UniProt P98066 18-277); test: SPR
Chain of Full-length, wild type recombinant human TSG-6 (P98066 18-277): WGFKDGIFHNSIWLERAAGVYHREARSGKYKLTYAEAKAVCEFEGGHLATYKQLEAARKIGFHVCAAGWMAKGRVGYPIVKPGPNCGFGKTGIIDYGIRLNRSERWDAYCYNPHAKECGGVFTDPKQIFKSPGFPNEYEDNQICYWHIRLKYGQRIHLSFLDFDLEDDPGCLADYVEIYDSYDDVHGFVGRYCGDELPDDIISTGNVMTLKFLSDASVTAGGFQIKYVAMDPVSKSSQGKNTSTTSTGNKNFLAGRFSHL

Chain of Isolated Link module of human TSG-6 (Link_TSG6) (P98066 36-129): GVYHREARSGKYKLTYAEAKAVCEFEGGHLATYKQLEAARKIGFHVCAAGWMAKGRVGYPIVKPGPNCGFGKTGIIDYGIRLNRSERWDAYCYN

| Kd [1] [nM] | koff [1] [s⁻¹] | kon [1] [M⁻¹ s⁻¹] | Kd [2] [nM] | koff [2] [s⁻¹] | kon [2] [M⁻¹ s⁻¹] | Binder |
| --- | --- | --- | --- | --- | --- | --- |
| 2 | 0.00011 | 57000 | – | – | – | CCL5 (ligand, UniProt P13501 24-91, looked up) SPYSSDTTPCCFAYIARPLPRAHIKEYFYTSGKCSNPAVVFVTRKNRQVCANPEKKWVREYINSLEMS |
| – | – | – | 16.4 | 0.00011 | 6400 | CXCL11 (ligand, UniProt O14625 22-94, looked up) FPMFKRGRCLCIGPGVKAVKVADIEKASIMYPSNNCDKIEVIITLKENKGQRCLNPKSKQARLIIKKVERKNF |
| – | – | – | 2110 | 0.0014 | 640 | CXCL8_T (K64A/K67A/R68A) mutant (ligand, 72-residue mature form by convention (mature numbering +27 = precursor); monomer/dimer equilibrium) SAKELRCQCIKTYSKPFHPKFIKELRVIESGPHCANTEIIVKLSDGRELCLDPKENWVQRVVEAFLAAAENS |
